# Assay results from the DeepSol protein solubility set.
# Test: soluble on expression in E. coli; label from the status in PepcDB or PDB records
row,Sequence,soluble on expression in E. coli
1,VKILVDENMPYARDLFSRLGEVTAVPGRPIPVAQLADADALMVRSVTKVNESLLAGKPIKFVGTATAGTDHVDEAWLKQAGIGFSAAPGCNAIAVVEYVFSSLLMLAERDGFSLYDRTVGIVGVGNVGRRLQARLEALGIKTLLCDPPRADRGDEGDFRSLDELVQRADILTFHTPLFKDGPYKTLHLADEKLIRSLKPGAILINACRGAVVDNTALLTCLNEGQKLSVVLDVWEGEPELNVELLKKVDIGTSHIAGYTLEGKARGTTQVFEAYSKFIGHEQHVALDTLLPAPEFGRITLHGPLDQPTLKRLVHLVYDVRRDDAPLRKVAGIPGEFDKLRKNYLERREWSSLYVICDDASAASLLCKLGFNAVHHPAR,soluble
2,VLRSKSLCHDEIENLLDSDHRELIGDYSKAFLLQTVDGKHQDLKYISPETMVALLTGKFSNIVDKFVIVDCRYPYEYEGGHIKTAVNLPLERDAESFLLKSPIAPCSLDKRVILIFHCEFSSERGPRMCRFIRERDRAVNDYPSLYYPEMYILKGGYKEFFPQHPNFCEPQDYRPMNHEAFKDELKTFRLKTRSWAGERSRRELCSRLQDQ,soluble
3,VNSVQIKNATAIVTGASSGIGLAFASLLAQKGYNLLLIARNINKLNDLAKTLSTQYDTQCNVLSIDLSEENASKKVLEYIITNNLNISVLINNAGFSGNYKFLEADWSQLSKELNVMSIAVTELCYLIAPLMEKNSWGRIINVSSGAAYLPPTQSLLYTGLKSYVLNFSQSLDMELKPKGINVTALCPGFTRSEFHNTMGTNKQVSKVPNFLWQA,not soluble
4,VQFQEYVFLQFLGLDKAPSPQKFQPVPYILKKIFQDREAAATTGVSRDLCYVKELGVRGNVLRFLPDQGFFLYPKKISQASSCLQKLLYFNLSAIKEREQLTLAQLGLDLGPNSYYNLGPELELALFLVQEPHVWGQTTPKPGKMFVLRSVPWPQGAVHFNLLDVAKDWNDNPRKNFGLFLEILVKEDRDSGVNFQPEDTCARLRCSLHASLLVVTLNPDQCHPSRKRRAAIPVPKLSCKNLCHRHQLFINFRDLGWHKWIIAPKGFMANYCHGECPFSLTISLNSSNYAFMQALMHAVDPEIPQAVCIPTKLSPISMLYQDNNDNVILRHYEDMVVDECGCG,soluble
5,VQQLSLFGSIGDDGYDLLISTLTTISGNPPLLYNSLCTVWKPNPSYDVENVNSRNQLVEPNRIKLSKEVPFSYLIDETMMDKPLNFRILKSFTNDKIPLNYAMTRNILHNTVPQVTNFNSTNEDQNNSKHTEDTVNESRNSDDIIDVDMDASPAPSNESCSPWSLQISDIPAAGNNRSVSMQTIAETIILSSAGKNSSVSSLMNGLGYVFEFQYLTIGVKFFMKHGLILELQKIWQIEEAGNSQITSGGFLLKAYINVSRGTDIDRINYTETVLMNLKKELQGYIELSVPDRQSMDSRVAHGNILIAAALEHHHHHH,soluble
6,VSQRPFRDRVLHLLALRPYRKAELLLRLQKDGLTQADKDALDGLLQQVANMSAKDGTCTLQDCMYKDVQKDWPGYSEGDQQLLKRVLVRKL,soluble
7,VTAEIRLYITEGEVEDYRVFLERLEQSGLEWRPATPEDADAVIVLAGLWGTRRDEILGAVDLARKSSKPIITVRPYGLENVPPELEAVSSEVVGWNPHCIRDALEDALDVI,soluble
8,VTVHSTPVRRSSGPAPQSLLSARRVSALPTPASRRCSGLPPMTPKTMPRAVGSPLCVPARRRSSEPRKNSAMRTEPTRESNRKTDSRLVDVSPDRGSPPSRVPQALNFSPEESDSTFSKSTATEVAREEAKPGGDAAPSEALLVDIKLEPLAVTPDAASQPLIDLPLIDFCDTPEAHVAVGSESRPLIDLMTNTPDMNKNVAKPSPVVGQLIDLSSPLIQLSPEADKENVDSPLLKF,not soluble
9,VWPTAKQAASLIGLDPKLLVAQAALETGWGRFVTRDADGSSSNNLFNIKTGSHSEVESIQVKTTEYIADTPIKINASFRKYPSIEHSFHDYVSLIKGSERYQMALANAENPEIFVSELNKAGYATDPNYSNKILSIYHGDELNQAIQRCESFEQS,not soluble
10,VYRTPRTCSPHFPAGPARVINPGLHELHASAGDERDAPIGINFRSPRMRMAGEFVPDSGACDAAHGGSAAPTRKAGMRIGGAAAGKVE,not soluble
11,WRRLLESLQQGRRSEERNRLVVERTNQAILLLEPGAGTIIDANPATCVLLGFSRNELTGADIHALLSGPVQEVDSELERCLRETRELSLCHRDGAELVVEAMATQVPHGDDQALCLMFHDIT,not soluble
